Measured values from the nanobody polyreactivity screen of Harvey et al. (2022).

Assay: yeast display, Sf9 membrane polyspecificity reagent, FACS + sequencing; frameworks hold sequencing errors
How it was run: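 Polyreactivity labels are assigned by the sorting gate from which each nanobody was recovered. The gates were low and high (top ~1%), set on anti-HA fluorescence for expression and streptavidin fluorescence for reagent binding. Before sorting, galactose-induced (36–48 hours) yeast display cells were stained for 1 hour at 4 °C with 10% biotinylated, detergent-solubilized Sf9 membrane reagent.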

| Sequence | polyreactivity (PSR sort gate) |
| --- | --- |
| QVQLVESGGRLVQAGGSLRISSAASGFIFYKYTMGWYRQAPGKERELVAAITRSGGSTYYADSVKGRCTISRDNAKNTVYLQMNSLKPEDTAVYYCAATQSFRRNYDYWGQGTQVTVSS | high polyreactivity |
| QVQLVESGGRLVQAGGSLRLLGAASGRIIYYNAMGWYRPAPGKERELVAAISSIGGSTYADSVKGRFTISRDNAKNTVYLQMNSLKPEDTAVYYCAADGFKRLYTQVAHVRYDYWGQGTQVTVSS | low polyreactivity |
| QVQLVESGGRLVQAGGSLRLSCAAAAITFYLYAMGRYRQAPGKERELVAAISSSGGSTYYADSVKGRFTISRDNAKNTVYLQINSLKPEDTAVYYCNARRRTVPYRYDYWGQGTQVTVSS | high polyreactivity |
| QVQLVESGGRLVQAGGSLRLSCAASGFIFRSYAMGWYRQAPGKERELVAAISSRGGSTSYADSVKGRFTISRDNAKNTVYLQLNSLKPEDTAVYYCNAYQYPGYGNNYWGQGSQVTVSS | high polyreactivity |
| QVQLVESGGRLVQAGGSLRLSCAASGFIFRYNAMGWYRQAPGKERELVARITSSGGTTYYADSVKGRFTISRDSSKNTVYLQMNSLKPEDTAVYYCNARKVRYPYGWYDYWGQGTQVTVSS | high polyreactivity |
| QVQLVESGGRLVQAGGSLRLSCAASGFSFGGNVIGWYRQAPGKDREFVAAITDGDGSTYYADSVKGRFTISRDNAKNTVYLQMNSLKPEDTSVYYCAGDVYYADVYPVEYWGQGTQVTVSS | high polyreactivity |
| QVQLVESGGRLVQAGGSLRLSCAASGFTFRRYAMGWYRQAPGKERELVAVITTAGSTNYADSVKGRFTISRDNAKNTVYLQMNTLKPEDTAVYYCATDNGTRKRRYDYWGQGTQVTVSS | low polyreactivity |
| QVQLVESGGRLVQAGGSLRLSCAASGFTFRYYDMRWYRPAPGKVRELVAAISSGGSTDYADSVKGRFTISRDNAKNTVYLQMNSLKPEDTAVYYCAADWWVVYTYDYWGRGTQVTVSS | low polyreactivity |
| QVQLVESGGRLVQAGGSLRLSCAASGFTFSHYAMGWYRQAPGKERELVAAISGRGGSTYYADSVKGRFTISRDNAKNTVYLPMNSLKPEDTAVYYCAARPSTYYTGHDYWGQGTQVTVSS | high polyreactivity |
| QVQLVESGGRLVQAGGSLRLSCAASGFTFSSYAMGWYRQAPGKERELVAAISTRCGSTYYADSVKGRFTISRDNAKNTVYLQMNSLKPEDTAVYYCATGCRGGRRYEYWGQGTQVTVSS | low polyreactivity |
| QVQLVESGGRLVQAGGSLRLSCAASGGIIRGYAMGWYRQAPGKEWELVATIRSSGRTNYADSVKGRFTISRDNEKNTVYFQMNSLKQEDTAVYYCAAVVRQYGFDYWGQGTQVTVSS | low polyreactivity |
| QVQLVESGGRLVQAGGSLRLSCAASGGTFRVYAMGWNRQAPGKEIEFVAAISAHGGRTYYADSVKGRFTISRDNAQNTVYLQLNSLKPEDTAVYYFYNRLPNSQDGTSAHYTYYSWGQGTQVTVSS | low polyreactivity |
| QVQLVESGGRLVQAGGSLRLSCAASGIIFPYNTMGWYRQSPGKERELVASIDDGGSTNYADSVKGRFTISRDNAKNTVYLQMNSLKPEDTAVYYCNADLFFIYVRQPGYDYWGQGTQVTVSS | low polyreactivity |
| QVQLVESGGRLVQAGGSLRLSCAASGITFDLYDMGWYRQAPGKVRELVAAITDADSTYYADSVKGRFTMSRDNEKNTVKLQMTSLIPEDTAVYYCAADFFYSVYSGHYDYWGQGTQVTVSS | low polyreactivity |
| QVQLVESGGRLVQAGGSLRLSCAASGITFLKYALGWYRQAPGKERELVAAISRRGGSTYYADSVKGRFTISRDNAMNTVYLEMNSLKPSDTAVYYCAARTVRGTWSQNDYCGQGTQVTVSS | low polyreactivity |
| QVQLVESGGRLVQAGGSLRLSCAASGITFVYYAMGWYRQAPGKERELVASISSGGSTYYADSVKGRFTISRDNAKNTVYLQMNSLKPEDTAVYDCAAPTGWYPAYGEYEYWGQGTQVTVSS | low polyreactivity |
| QVQLVESGGRLVQAGGSLRLSCAASGITFYDYAMGWYRQAPGKERELVAAITWNGGDTYYADSVKGRFTISRDNAKNTVYLQMHSLKPEDTAVYYCNATRHYFGGFHYEYYYWGQGTQVTVSS | low polyreactivity |
| QVQLVESGGRLVQAGGSLRLSCAASGRIFARYAMGWYRQAPGKERELLASINSGGNTYYADSVKGRFTISRDNAKNTVYLQMNSLKPEDTAVYYCAAVVGRRPSSRSRFEYDYWGQGTQVTVSS | low polyreactivity |
| QVQLVESGGRLVQAGGSLRLSCAASGRIFRVYAMGWYRQAPGKERELVAAISSRGGRTYYADSVKGRFTISRDNAKNTVYLQMNSLKPEDTAVYFCAADGRSSSRTTSRYDYWGQGTQVTVSS | high polyreactivity |
| QVQLVESGGRLVQAGGSLRLSCAASGRIYTPYAMGWYRQAPGTERELVAAISTIGGTTYADSVKGRFTISRDNAKNTVYLQMNSLKPEDTAVYYCNTRRTGRRSTTPGDYWGQGTQVTVSS | high polyreactivity |
| QVQLVESGGRLVQAGGSLRLSCAASGRNFGLYAMGWYRQAPGKEREFVAAIRWIGGGTYYADSVKGRFTISRDNAKNTVYLQMNSLKPEDTAVYYCAARLSVAWVGYDYWGQGTQVTVSS | low polyreactivity |

| Sequence | polyreactivity (PSR sort gate) |
| --- | --- |
| QVQLVESGGRLVQAGGSLRLSCAASGRTFGYYAMGWYRQAPGQERELVAAITESGGSTYYSDSVKGRFTISRDNAMNTVYLQMNSLKPEDTAVYYFASTHFVKGDYWGQGTQVTVSS | high polyreactivity |
| QVQLVESGGRLVQAGGSLRLSCAASGRTFQGNAMGWSRQAPGKERELVAAISIRSGRTYYADSVKGRFTISRDNAKNTVYLQMNSLKPEDTAVYYCAAYRGKVRYDYWGQGTQVTVSS | high polyreactivity |
| QVQLVESGGRLVQAGGSLRLSCAASGRTFRSHTKGWYRKAPGKERELVAAIIIGGSTYYADTVKGRFTISRDNAKNTVYLQMNSLKPEDSAVYYCARFYRYSRDYWGQGTQVTVSS | high polyreactivity |
| QVQLVESGGRLVQAGGSLRLSCAASGRTFRSYAMGWYRPAPGKEWELVAAIRTSDGITYYADSVKGRFTISRDNAKNTVDLQMNSLQPEDTAVYYCAAENWYKYDYWGQGTQVTVSS | low polyreactivity |
| QVQLVESGGRLVQAGGSLRLSCAASGRTFSFYAMGWYRQAPGQERELVAGIDWDDGSTSYADSVKGRFTISRDNAKNSVYLQMNSLKPEDTAVYYCAADIGYDDYNDYDYWGQGTQVTVSS | low polyreactivity |
| QVQLVESGGRLVQAGGSLRLSCAASGRTFSVYAMGWYRQAPGKERELVAGITSGGSTNYADSVKGRFTISRDNAKNTVYLQMNSRKPEDTAVYYCAAEIVYAAFGFDSIGDYWGQGTQVTVSS | low polyreactivity |
| QVQLVESGGRLVQAGGSLRLSCAASGRTLSSYVIGWYRQAPGKERELVAAITQSTSRTYYADSVKGRFTISRDNAKNTVYLQMHSLKPEDTAVYYCAAEGRFGRKYGYWGQGTQVTVSS | low polyreactivity |
| QVQLVESGGRLVQAGGSLRLSCAASGSIFGFNAMGWYRQAPGKERELVAAIIYGGSTNYADSVKGRFTISRDNEKNTVYLQMNSQKPEDTAVYYCAARLNYIRRGYWGQGTQVTVSS | high polyreactivity |
| QVQLVESGGRLVQAGGSLRLSCAASGSIFNRYAMGWYRQAPGKERELVARITNRSGNTYYADSVKGRFTISRANAKNTVYLQMNSLKPEDTAVYYCAATKSLGRYNMDYWGQGTQVTVSS | low polyreactivity |
| QVQLVESGGRLVQAGGSLRLSCAASGSIFWYNSMGWYRQAPGKERELVAAISRRGGTTYADSVKGRFSISRDNAKYTVYLQLNSLKPEDTAVSYCGTTYTSRYYPYDYWGQGTQVTVSS | high polyreactivity |
| QVQLVESGGRLVQAGGSLRLSCAASGSIFYRYAMGWYRQAPGQERELVATINSDGGDTYYADSVKGRFTISRDNAKNTVSLQMNSLKPEDTAVYYSAKGYYVLYRAWYDSYDYWGQGTQVTVSS | low polyreactivity |
| QVQLVESGGRLVQAGGSLRLSCAASGSIFYSYAMGWYRQAPGKERELVAAISRSGVSTYYADSVKGRFTISRDNAKNTVYFQMNSLKPEDTAVYYCASPYFVSYQGYDYWGQGTQVTVSS | high polyreactivity |
| QVQLVESGGRLVQAGGSLRLSCAASGSILTYYTMGWYRQAPGKERELVARISWSGSRTYYADSVKGRFTISRDNAKNTVYLQMNSLKPEDTAVYYCAAKANWYANYDYWGQGTQVTVSS | high polyreactivity |
| QVQLVESGGRLVQAGGSLRLSCAASGSTFNINAMGWYRQAPGKERELVAAISWSGDITYYADSVKGRFTISRDNAKNNVYLQMNSLKPEDTAVYYCNTDDPGNYWYAEYDYWGQGTQVTVSS | low polyreactivity |
| QVQLVESGGRLVQAGGSLRLSCAASGSTFRYYAMGWYRQAPGKERELVAAITSSGTSTYYADSVKGRFTISRDNAKNTVYLQMNSLKPEDTAVYYCAAPPVYKWVSSRYDYWGQGTQVTVSS | low polyreactivity |
| QVQLVESGGRLVQAGGSLRLSCAASGYNFSKYAMGWYRQAPGKERELVAAISGSGGSTSYADSVKGRFTISRDNAKNTVYLHMNSLKPEDTAVYYCNARSRLQRGRMDYWGQGTQVTVSS | high polyreactivity |
| QVQLVESGGRLVQAGGSLRLSCAASGYTFGSYPMGWYRQAPGNERELVAAISGGGSTNYADSVKGRFTISRDNAKNTVYLQMNSMKPEDTAVYYCAAYPYVYQLRVEEYDHWGQGTQVTVSS | low polyreactivity |
| QVQLVESGGRLVQAGGSLRLSCAASGYTIDPYDMGWYRQAPGKERELVASISWSGGDTYYADSVKGRFTISRDNAKNTVYLQMNSLKPEDTAVYYCAADPGYPANRTEWSDFDYWGQGTQVTVSS | low polyreactivity |
| QVQLVESGGRLVQAGGSLRLSCAPSGFTFYRYAMGWYRQAPGKEREFVAAITWSGGSTYYADSVKGRFTISRDNSKNTVYLQMNSLKPEDTAVYYCAAYVGFDGTREYDYWGQGTQVTVSS | high polyreactivity |
| QVQLVESGGRLVQAGGSLRLSCAPSGNTFALNAMGWYRQAPGKERELVAAISRRGASTYYADSVKRRFTISRDYAKNTVYIQMNSLKPEDNALDYCAADSGPRVGFFYWGQGTQVTVSS | high polyreactivity |
